Patent EP4818206A1
pEC50: −log10 of the molar value.

Tests used:
[1] = molecular target: cynomolgus CD84 (NCBI Accession No. XM_005541244.3), on HEK293T cells (cynomolgus); assay: flow cytometry on HEK293T-Cyno-CD84 cells
[2] = molecular target: human CD84 (NCBI Accession No. NP_001171808.1), on cells (human) (UniProt Q9UIB8); assay: flow cytometry on HEK293T-hCD84 cells
UniProt Q9UIB8, sequence (Q9UIB8 22-345): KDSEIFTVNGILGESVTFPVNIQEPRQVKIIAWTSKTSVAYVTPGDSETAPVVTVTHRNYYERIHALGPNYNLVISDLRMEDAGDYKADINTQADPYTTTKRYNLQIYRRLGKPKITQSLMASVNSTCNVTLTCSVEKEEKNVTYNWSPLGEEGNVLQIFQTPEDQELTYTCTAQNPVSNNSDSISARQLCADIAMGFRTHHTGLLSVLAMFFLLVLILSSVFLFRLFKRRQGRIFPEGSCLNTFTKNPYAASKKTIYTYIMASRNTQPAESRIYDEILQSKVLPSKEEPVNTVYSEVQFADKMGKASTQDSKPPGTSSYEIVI

pEC50 [1]: 7.78
MFI (max) [1]: 57700 MFI
pEC50 [2]: 8.68
MFI (max) [2]: 134000 MFI
Substance: CD84.1.21 (Biolegend; Cat. No. 326002) (antibody)
